Laboratory results taken from article PMC10681232.

How the values were obtained:
[1] = target: Flag-tagged Atlantic halibut Aqp1ab1 wild-type canonical channel (Flag-HhAqp1ab1-WT) (Atlantic halibut (Hippoglossus hippoglossus))
[2] = target: Flag-tagged Senegalese sole Aqp1ab2 wild-type canonical channel (Flag-SsAqp1ab2-WT) (Senegalese sole (Solea senegalensis))

inhibition of osmotic water permeability (Pf) of X. laevis oocytes coexpressing HhAqp1ab1 v1 and HhAqp1ab1-WT in ratios from 0.05 to 50, untagged forms, with respect to the canonical channel only [1] [%] | inhibition of osmotic water permeability (Pf) of X. laevis oocytes expressing SsAqp1ab2-WT plus YwhazLb, treated with FSK, after injecting equal cRNA amounts of WT and SsAqp1ab2 v2, untagged forms [2] [%] | Substance
94 | – | HA-tagged Atlantic halibut Aqp1ab1 splice variant 1 (HA-HhAqp1ab1_v1)
– | 84 | HA-tagged Senegalese sole Aqp1ab2 splice variant 2 (HA-SsAqp1ab2_v2) (natural protein)
